The target of this assay is CD47 on A20 murine lymphoma cells (mouse) (UniProt Q61735). In words: cell-based or functional assay.
UniProt Q61735, sequence (Q61735 19-303): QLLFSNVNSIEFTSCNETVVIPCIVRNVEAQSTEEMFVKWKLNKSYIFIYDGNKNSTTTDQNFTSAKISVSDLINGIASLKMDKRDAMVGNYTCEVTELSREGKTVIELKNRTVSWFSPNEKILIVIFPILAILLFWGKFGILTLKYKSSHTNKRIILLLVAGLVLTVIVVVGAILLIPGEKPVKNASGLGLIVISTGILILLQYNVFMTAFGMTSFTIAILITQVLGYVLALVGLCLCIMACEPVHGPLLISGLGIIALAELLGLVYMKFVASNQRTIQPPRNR

Take “FITC-labeled anti-mouse CD47 monoclonal antibody, clone miap301”: the phagocytosis of DiI-labelled A20 tumor cells by bone marrow-derived macrophages came to 60 % increase.

The record behind these values is US20260007703A1.
